# Like-named read-outs stand apart in the source and are kept apart here.
# How the values were obtained:
# [1] = biological target: dimeric biotinylated human PD-1 protein with a C-terminal human Fc tag (human); experiment: competition ELISA: 200 pM biot-hPD-1-hFc to coated hPD-L1-mFc; NBI
# [2] = biological target: recombinant human PD-1 dimer expressed with a C-terminal mouse IgG2a Fc tag (human); experiment: competition ELISA: 1.5 nM hPD-1-mFc to coated hPD-L1-hFc; NBI
# [3] = biological target: recombinant human PD-1 dimer expressed with a C-terminal mouse IgG2a Fc tag (human); experiment: competition ELISA: 100 pM hPD-1-mFc to coated hPD-L2-hFc; NBI
# [4] = biological target: full length human PD-1 on HEK293/hPD-1 cells (human) (UniProt Q15116); experiment: FACS dose response, HEK293/hPD-1 cells; control
# [5] = biological target: PD-1 chimera: extracellular domain of human PD-1 with trans-membrane and cytoplasmic domains of human CD300a, on Jurkat/AP1-Luc cells (human) (UniProt Q9UGN4); experiment: cell-based or functional assay
# [6] = biological target: full length human PD-1 on HEK293/hPD-1 cells (human) (UniProt Q15116); experiment: FACS dose response, HEK293/hPD-1 cells; control; remark: listed apart in the source
Max Geom. Mean MFI @ 100 nM [4],Max Geom. Mean MFI @ 100 nM [6],Substance,also measured
,,Isotype control 1 (antibody),% blocking at 50 nM antibody [1]: 19%; % blocking at 200 nM antibody [2]: -3%
,,Isotype control 2 (antibody),% blocking at 100 nM antibody [3]: -27%
809 MFI,,hIgG4 isotype control (antibody),Emax mean [%] @ 100 nM [5]: 98%
858 MFI,200 MFI,mIgG1 isotype control (antibody),
352 MFI,239 MFI,mIgG2a isotype control (antibody),
